According to paper PMC6220203 (2018):

Target: Biotinylated aMD5 (C-terminal biotinylated macrocycle) (macrocyclized; biotin (NHS-biotin) on the added C-terminal Lys)
Assay: SPR

- koff: 0.00041 s⁻¹
B1: MET receptor extracellular domain SEMA–IPT4 (residues 1–931)-Fc (Fc fusion)
chain: ECKEALAKSEMNVNMKYQLPNFTAETPIQNVILHEHHIFLGATNYIYVLNEEDLQKVAEYKTGPVLEHPDCFPCQDCSSKANLSGGVWKDNINMALVVDTYYDDQLISCGSVNRGTCQRHVFPHNHTADIQSEVHCIFSPQIEEPSQCPDCVVSALGAKVLSSVKDRFINFFVGNTINSSYFPDHPLHSISVRRLKETKDGFMFLTDQSYIDVLPEFRDSYPIKYVHAFESNNFIYFLTVQRETLDAQTFHTRIIRFCSINSGLHSYMEMPLECILTEKRKKRSTKKEVFNILQAAYVSKPGAQLARQIGASLNDDILFGVFAQSKPDSAEPMDRSAMCAFPIKYVNDFFNKIVNKNNVRCLQHFYGPNHEHCFNRTLLRNSSGCEARRDEYRTEFTTALQRVDLFMGQFSEVLLTSISTFIKGDLTIANLGTSEGRFMQVVVSRSGPSTPHVNFLLDSHPVSPEVIVEHTLNQNGYTLVITGKKITKIPLNGLGCRHFQSCSQCLSAPPFVQCGWCHDKCVRSEECLSGTWTQQICLPAIYKVFPNSAPLEGGTRLTICGWDFGFRRNNKFDLKKTRVLLGNESCTLTLSESTMNTLKCTVGPAMNKHFNMSIIISNGHGTTQYSTFSYVDPVITSISPKYGPMAGGTLLTLTGNYLNSGNSRHISIGGKTCTLKSVSNSILECYTPAQTISTEFAVKLKIDLANRETSIFSYREDPIVYEIHPTKSFISGGSTITGVGKNLNSVSVPRMVINVHEAGRNFTVACQHRSNSEIICCTTPSLQQLNLQLPLKTKAFFMLDGILSKYFDLIYVHNPVFKPFEKPVMISMGNENVLEIKGNDIDPEAVKGEVLKVGNKSCENIHLHSEAVLCTVPNDLLKLNSELNIEWKQAISSTVLGKVIVQPDQNF
